Reference: patent publication US20260193376A1 (Novo Nordisk, published 2026)

What was measured:
[1] = target: T1, wild-type FIX with C-terminal His-tag (human, UniProt P00740 47-461); assay: SPR (Biacore T200), wild-type FIX captured via His-tag, 20 µM OA antibody (reference)
T1 construct: also called WT
Description: (§1) SPR analyses were carried out on Biacore T200 instruments (Biacore AB, Uppsala, Sweden). For the experiments on the T200 instrument the following conditions were applied: measurements were conducted at a temperature of 25° C. Anti-His antibody at 25 μg/ml (R&D Systems, catalogue #MAB050) was immobilized on a CM5 sensor chip using standard amine coupling chemistry. […] at 25 nM were injected at a flow rate of 10 μl/min for 1 min and were captured via their His-tag by the immobilized anti-His antibody. […] The running buffer used was 20 mM Tris, 150 mM NaCl, 5 mM CaCl₂, 0.05% Tween-20, 10 mg/ml BSA, pH 7.4. This was also used for dilution of anti-FIX antibody and FIX samples. Regeneration of the chip was achieved using 10 mM Glycine pH 2.0. Binding data were analysed according to a 1:1 model using BiaEvaluation 4.1 supplied by the manufacturer (Biacore AB, Uppsala, Sweden).
(§2) where Rmax_FIXvar and Rmax_FIXwt represent capture level (RU) of FIX variant and wild-type FIX, respectively, and where R_{max_Ab,FIX_var} and R_{max_Ab,FIX_wt} represent Rmax (RU) of the 20 μM antibody to captured FIX variant and wild-type FIX, respectively.

[2] = target: human plasma-derived Factor IXa (human, UniProt P00740 47-191; P00740 227-461); assay: cell-based or functional assay
Sequence of human plasma-derived Factor IXa (P00740 47-191, chain 1 of 2): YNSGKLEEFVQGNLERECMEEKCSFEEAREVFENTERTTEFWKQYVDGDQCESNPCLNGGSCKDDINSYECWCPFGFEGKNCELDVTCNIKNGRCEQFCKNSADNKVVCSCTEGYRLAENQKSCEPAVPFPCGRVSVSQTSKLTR
Sequence of human plasma-derived Factor IXa (P00740 227-461, chain 2 of 2): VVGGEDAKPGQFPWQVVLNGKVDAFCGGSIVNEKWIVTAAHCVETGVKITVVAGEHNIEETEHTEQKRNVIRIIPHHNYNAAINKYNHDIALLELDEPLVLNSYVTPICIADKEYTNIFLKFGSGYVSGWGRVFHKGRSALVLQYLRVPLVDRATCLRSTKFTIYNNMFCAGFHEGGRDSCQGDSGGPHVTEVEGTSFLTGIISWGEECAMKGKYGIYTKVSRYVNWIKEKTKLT

[3] = target: FIX K341E with C-terminal His-tag (human, UniProt P00740 47-461); assay: SPR (Biacore T200), FIX variant captured via His-tag, 20 µM OA antibody
Sequence of FIX K341E with C-terminal His-tag (P00740 other isoform, or with tags, fused parts or gaps K341E K341E limits assumed): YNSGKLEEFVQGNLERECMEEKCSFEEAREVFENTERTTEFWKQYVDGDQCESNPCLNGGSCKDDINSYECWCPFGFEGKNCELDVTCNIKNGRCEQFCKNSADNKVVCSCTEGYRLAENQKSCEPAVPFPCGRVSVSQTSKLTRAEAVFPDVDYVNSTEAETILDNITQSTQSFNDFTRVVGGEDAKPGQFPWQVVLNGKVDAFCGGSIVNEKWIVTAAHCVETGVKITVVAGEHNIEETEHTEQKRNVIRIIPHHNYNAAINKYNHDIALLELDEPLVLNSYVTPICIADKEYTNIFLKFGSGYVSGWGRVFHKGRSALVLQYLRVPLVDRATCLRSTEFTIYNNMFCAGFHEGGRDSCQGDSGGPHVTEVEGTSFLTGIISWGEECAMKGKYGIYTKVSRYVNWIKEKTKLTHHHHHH
Description: as §1, §2

[4] = target: FIX N346Q with C-terminal His-tag (human, UniProt P00740 47-461); assay: as above
Sequence of FIX N346Q with C-terminal His-tag (P00740 other isoform, or with tags, fused parts or gaps N346Q N346Q limits assumed): as the sequence (P00740 other isoform, or with tags, fused parts or gaps K341E K341E limits assumed) above, with E341K, N346Q counted along it
Description: as §1, §2

[5] = target: FIX L337A with C-terminal His-tag (human, UniProt P00740 47-461); assay: as above
Sequence of FIX L337A with C-terminal His-tag (P00740 other isoform, or with tags, fused parts or gaps L337A L337A limits assumed): as the sequence (P00740 other isoform, or with tags, fused parts or gaps K341E K341E limits assumed) above, with L337A, E341K counted along it
Description: as §1, §2

[6] = target: FIX D332A with C-terminal His-tag (human, UniProt P00740 47-461); assay: as above
Sequence of FIX D332A with C-terminal His-tag (P00740 other isoform, or with tags, fused parts or gaps D332A D332A limits assumed): as the sequence (P00740 other isoform, or with tags, fused parts or gaps K341E K341E limits assumed) above, with D332A, E341K counted along it
Description: as §1, §2

[7] = target: FIX T343I with C-terminal His-tag (human, UniProt P00740 47-461); assay: as above
Sequence of FIX T343I with C-terminal His-tag (P00740 other isoform, or with tags, fused parts or gaps T343I T343I limits assumed): as the sequence (P00740 other isoform, or with tags, fused parts or gaps K341E K341E limits assumed) above, with E341K, T343I counted along it
Description: as §1, §2

[8] = target: FIX T335A with C-terminal His-tag (human, UniProt P00740 47-461); assay: as above
Sequence of FIX T335A with C-terminal His-tag (P00740 other isoform, or with tags, fused parts or gaps T335A T335A limits assumed): as the sequence (P00740 other isoform, or with tags, fused parts or gaps K341E K341E limits assumed) above, with T335A, E341K counted along it
Description: as §1, §2

[9] = target: FIX K301A with C-terminal His-tag (human, UniProt P00740 47-461); assay: as above
Sequence of FIX K301A with C-terminal His-tag (P00740 other isoform, or with tags, fused parts or gaps K301A K301A limits assumed): as the sequence (P00740 other isoform, or with tags, fused parts or gaps K341E K341E limits assumed) above, with K301A, E341K counted along it
Description: as §1, §2

[10] = target: FIX D332S with C-terminal His-tag (human, UniProt P00740 47-461); assay: as above
Sequence of FIX D332S with C-terminal His-tag (P00740 other isoform, or with tags, fused parts or gaps D332S D332S limits assumed): as the sequence (P00740 other isoform, or with tags, fused parts or gaps K341E K341E limits assumed) above, with D332S, E341K counted along it
Description: as §1, §2

[11] = target: FIX R333A with C-terminal His-tag (human, UniProt P00740 47-461); assay: as above
Sequence of FIX R333A with C-terminal His-tag (P00740 other isoform, or with tags, fused parts or gaps R333A R333A limits assumed): as the sequence (P00740 other isoform, or with tags, fused parts or gaps K341E K341E limits assumed) above, with R333A, E341K counted along it
Description: as §1, §2

[12] = target: FIX N346A with C-terminal His-tag (human, UniProt P00740 47-461); assay: as above
Sequence of FIX N346A with C-terminal His-tag (P00740 other isoform, or with tags, fused parts or gaps N346A N346A limits assumed): as the sequence (P00740 other isoform, or with tags, fused parts or gaps K341E K341E limits assumed) above, with E341K, N346A counted along it
Description: as §1, §2

[13] = target: FIX S339L with C-terminal His-tag (human, UniProt P00740 47-461); assay: as above
Sequence of FIX S339L with C-terminal His-tag (P00740 other isoform, or with tags, fused parts or gaps S339L S339L limits assumed): as the sequence (P00740 other isoform, or with tags, fused parts or gaps K341E K341E limits assumed) above, with S339L, E341K counted along it
Description: as §1, §2

[14] = target: FIX R338A with C-terminal His-tag (human, UniProt P00740 47-461); assay: as above
Sequence of FIX R338A with C-terminal His-tag (P00740 other isoform, or with tags, fused parts or gaps R338A R338A limits assumed): as the sequence (P00740 other isoform, or with tags, fused parts or gaps K341E K341E limits assumed) above, with R338A, E341K counted along it
Description: as §1, §2

[15] = target: FIX K341A with C-terminal His-tag (human, UniProt P00740 47-461); assay: as above
Sequence of FIX K341A with C-terminal His-tag (P00740 other isoform, or with tags, fused parts or gaps K341A K341A limits assumed): as the sequence (P00740 other isoform, or with tags, fused parts or gaps K341E K341E limits assumed) above, with E341A counted along it
Description: as §1, §2

[16] = target: FIX A334L with C-terminal His-tag (human, UniProt P00740 47-461); assay: as above
Sequence of FIX A334L with C-terminal His-tag (P00740 other isoform, or with tags, fused parts or gaps A334L A334L limits assumed): as the sequence (P00740 other isoform, or with tags, fused parts or gaps K341E K341E limits assumed) above, with A334L, E341K counted along it
Description: as §1, §2

[17] = target: FIX T340A with C-terminal His-tag (human, UniProt P00740 47-461); assay: as above
Sequence of FIX T340A with C-terminal His-tag (P00740 other isoform, or with tags, fused parts or gaps T340A T340A limits assumed): as the sequence (P00740 other isoform, or with tags, fused parts or gaps K341E K341E limits assumed) above, with T340A, E341K counted along it
Description: as §1, §2

[18] = target: FIX T343A with C-terminal His-tag (human, UniProt P00740 47-461); assay: as above
Sequence of FIX T343A with C-terminal His-tag (P00740 other isoform, or with tags, fused parts or gaps T343A T343A limits assumed): as the sequence (P00740 other isoform, or with tags, fused parts or gaps K341E K341E limits assumed) above, with E341K, T343A counted along it
Description: as §1, §2

T1 sequence (P00740 other isoform, or with tags, fused parts or gaps limits assumed): as the sequence (P00740 other isoform, or with tags, fused parts or gaps K341E K341E limits assumed) above, with E341K counted along it

B1: one-armed (OA) mAb01-9994 (antibody, V domains shown)
VH: EVQLVESGGGLVQPGRSLRLSCAASGFTFHDYAMHWVRQVPGKGLEWVSGISWKGDIGGYVDSVKGRFTISRDNEKNSLYLQMNSLRAEDTALYYCVKSYGSGSFYNAFDSWGQGTLVTVSS
VL: DIQMTQSPSTLSASVGDRVTITCRASQSISSWLAWYQQKPGKAPKFLIYKASRLDRGTPSRFSGSGSGTEFSLTISSLQPDDFATYYCLEYSSYIRTFGQGTKVEIK
notes: also called OA variant of mAb01-9994
Binding (%) relative to wild-type FIX [1]: 100% | Stimulation Index, FXa generation assay, 3600 nM OA antibody [2]: 10600 fold | Binding (%) relative to wild-type FIX [3]: 3% | Binding (%) relative to wild-type FIX [4]: 101% | Binding (%) relative to wild-type FIX [5]: 38% | Binding (%) relative to wild-type FIX [6]: 41% | Binding (%) relative to wild-type FIX [7]: 62% | Binding (%) relative to wild-type FIX [8]: 43% | Binding (%) relative to wild-type FIX [9]: 89% | Binding (%) relative to wild-type FIX [10]: 41% | Binding (%) relative to wild-type FIX [11]: 55% | Binding (%) relative to wild-type FIX [12]: 92% | Binding (%) relative to wild-type FIX [13]: 46% | Binding (%) relative to wild-type FIX [14]: 0% | Binding (%) relative to wild-type FIX [15]: 18% | Binding (%) relative to wild-type FIX [16]: 38% | Binding (%) relative to wild-type FIX [17]: 16% | Binding (%) relative to wild-type FIX [18]: 58%

B2: one-armed (OA) mAb01-9985 (antibody, V domains shown)
VH: EVQLVESGGGLVQPGRSLRLSCAASGFTFHDYAMHWVRQVPGKGLEWVSGISWRGDIGGYVKSVKGRFTISRDNAKNSLYLQMNSLRAEDTALYYCVKSYGSGSFYNAFDSWGQGTLVTVSS
VL: DIQMTQSPSTLSASVGDRVTITCRASQSISSWLAWYQQKPGKAPKFLIYKASKLERGTPSRFSGSGSGTEFSLTISSLQPDDFATYYCLEYSSYIRTFGQGTKVEIK
notes: also called OA variant of mAb01-9985
Binding (%) relative to wild-type FIX [1]: 100% | Stimulation Index, FXa generation assay, 2400 nM OA antibody [2]: 13700 fold | Binding (%) relative to wild-type FIX [3]: 10% | Binding (%) relative to wild-type FIX [4]: 93% | Binding (%) relative to wild-type FIX [5]: 61% | Binding (%) relative to wild-type FIX [6]: 59% | Binding (%) relative to wild-type FIX [7]: 84% | Binding (%) relative to wild-type FIX [8]: 64% | Binding (%) relative to wild-type FIX [9]: 94% | Binding (%) relative to wild-type FIX [10]: 59% | Binding (%) relative to wild-type FIX [11]: 73% | Binding (%) relative to wild-type FIX [12]: 100% | Binding (%) relative to wild-type FIX [13]: 66% | Binding (%) relative to wild-type FIX [14]: 8% | Binding (%) relative to wild-type FIX [15]: 30% | Binding (%) relative to wild-type FIX [16]: 60% | Binding (%) relative to wild-type FIX [17]: 29% | Binding (%) relative to wild-type FIX [18]: 86%
